According to patent US20240084042A1 (Genentech, published 2024):
Where a chain is given by its changes, count along the chain named. Names and notes keep the numbering of the source.

T1: human KLK5 (human, UniProt Q9Y337 67-293)
T1 construct: also called huKLK5; KLK5 AMC
T1 sequence: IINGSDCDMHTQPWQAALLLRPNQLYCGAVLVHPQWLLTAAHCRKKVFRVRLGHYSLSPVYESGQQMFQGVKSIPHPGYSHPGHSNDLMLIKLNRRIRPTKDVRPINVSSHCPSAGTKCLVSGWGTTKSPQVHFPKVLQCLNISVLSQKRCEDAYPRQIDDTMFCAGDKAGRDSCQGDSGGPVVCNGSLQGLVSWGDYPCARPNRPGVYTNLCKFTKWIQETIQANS

T2: cynomolgus monkey KLK5 (cynomolgus monkey, UniProt Q9Y337 67-293 (human entry))
T2 construct: also called cyno KLK5
T2 chain: T1 sequence with M9E, R21G, A29G, V71I, R98H, P99S, K128R, K169E, R202K

B1: chimeric rb.14H11c-hIgG1 (antibody, V domains shown)
VH: QSLEESGGDLVKPGASLTLTCTASGFSFSSSYYMSWVRQAPGKGLEWIASIYAGSSGAPYYAGWAKGRFTISKTSSTAVTLQMSSLTAADTATYFCAREGFAETGGYGYAAYFNLWGPGTLVTVSS
VL: AIEMTQSPPSLSASVGETVRIRCLASEDIASSVSWYQQKPGKPPTLLIYGASNLESGVPPRFTGSGSGTDYTLTIGGVQAEDAATYYCLGGYSYSSTGTAFGAGTKVEIK
notes: Rabbit variable domains (14H11 with C35a to S in VH) on human IgG1; also called Chimeric 14H11c
B2: hu.14H11c.L2H11-hIgG1 (antibody, V domains shown)
VH: EQQLVESGGGLIQPGGSLRLSCAASGFSFSSSYYMSWVRQAPGKGLEWVSSIYAGSSGAPYYAGWAKGRFTISRDNSKNTLYLQMNSLRAEDTAVYYCAREGFAETGGYGYAAYFNLWGPGTLVTVSS
VL: DIQMTQSPSSLSASVGDRVTITCLASEDIASSVSWYQQKPGKAPKLLIYGASNLESGVPSRFSGSGSGTDYTLTISSLQPEDFATYYCLGGYSYSSTGTAFGGGTKVEIK
notes: Humanized anti-KLK7 antibody, human IgG1
B3: One-armed hu.14H11c.L2H11-hIgG1 knob-in-hole (antibody)
heavy: not shown
VL: B2 VL with Q38K
chain: DKTHTCPPCPAPELLGGPSVFLFPPKPKDTLMISRTPEVTCVVVDVSHEDPEVKFNWYVDGVEVHNAKTKPREEQYGSTYRVVSVLTVLHQDWLNGKEYKCKVSNKALPAPIEKTISKAKGQPREPQVYTLPPSREEMTKNQVSLSCAVKGFYPSDIAVEWESNGQPENNYKTTPPVLDSDGSFFLVSKLTVDKSRWQQGNVFSCSVMHEALHNHYTQKSLSLSPGK
notes: Monovalent one-armed format
B4: OA.hu.10C5.L5H28.WT (antibody, V domains shown)
VH: EVQLVESGGGLVQPGGSLRLSCAASGFSLSSYGVTWVRQAPGKGLEWIGYITSNYGVSYYASWAKSRSTISRDTSKNTVYLQMGSLRAEDMAVYYCARENPDYGYAYDAWGQGTTVTVSS
VL: AIRMTQSPSSFSASTGDRVTITCQASESISNELSWYQQKPGKAPKLLIYYASTLASGVPSRFSGSGSGTDFTLTISSLQPEDFATYYCAQGFGSSGVENVFGGGTKVEIK
notes: One-armed (OA) monovalent anti-KLK5 antibody with a human IgG1 Fc, without Q38E/Q39K; constant regions and dummy Fc chain not specified
B5: OA.hu.10C5.N53V (antibody, V domains shown)
VH: B4 VH with N54V
VL: B4 VL
notes: as for B4
B6: OA.hu.10C5.N53V.F92Y (antibody, V domains shown)
VH: B4 VH with Q39K, N54V
VL: B4 VL with Q38E, F92Y
notes: One-armed (OA) monovalent anti-KLK5 antibody with a human IgG1 Fc, with Q38E/Q39K; constant regions and dummy Fc chain not specified
B7: OA.hu.10C5.N53V.F92Y.S95F (antibody, V domains shown)
VH: B4 VH with Q39K, N54V
VL: B4 VL with Q38E, F92Y, S95F
notes: as for B6
B8: OA.hu.10C5.N53V.S34K (antibody, V domains shown)
VH: B4 VH with Q39K, N54V
VL: B4 VL with S34K, Q38E
notes: as for B6
B9: OA.hu.10C5.N53V.S34K.F92Y (antibody, V domains shown)
VH: B4 VH with Q39K, N54V
VL: B4 VL with S34K, Q38E, F92Y
notes: as for B6
B10: OA.hu.10C5.N53V.S34K.F92Y.S95F (antibody, V domains shown)
VH: B4 VH with Q39K, N54V
VL: B4 VL with S34K, Q38E, F92Y, S95F
notes: as for B6
B11: OA.hu.10C5.N53V.S34K.S95F (antibody, V domains shown)
VH: B4 VH with Q39K, N54V
VL: B4 VL with S34K, Q38E, S95F
notes: as for B6
B12: OA.hu.10C5.N53V.S95F (antibody, V domains shown)
VH: B4 VH with Q39K, N54V
VL: B4 VL with Q38E, S95F
notes: as for B6
B13: OA.hu.9H5.H14L4.G98Q.H89V (antibody, V domains shown)
VH: EVQLVESGGGLIQPGGSLRLSCAASGFSLSSYGVSWVRKAPGKGLEYVGFIGSGGFAYYASWAKSRFTISRDNSKNTLYLQMNSLRAEDTAVYYCARDDVQGGKSLDIWGQGTLVTVSS
VL: DIQMTQSPSSLSASVGDRVTITCQASQSISSYLSWYQEKPGKAPKLLIYSASTLASGVPSRFSGSGSGTDFTLTISSLQPEDFATYYCVQDYTSSNVDNTFGGGTKVEIK
notes: as for B6
B14: OA.hu.9H5.H14L4.G98Q.H89V.S95Y (antibody, V domains shown)
VH: B13 VH
VL: B13 VL with S95Y
notes: as for B6
B15: OA.hu.9H5.H14L4.G98Q.S95Y (antibody, V domains shown)
VH: B13 VH
VL: B13 VL with V89H, S95Y
notes: as for B6
B16: hu10C5VY (antibody, V domains shown)
VH: B4 VH with N54V
VL: B4 VL with F92Y

Target: T3, human KLK7 (human, UniProt P49862 30-253)
T3 construct: Antigen injected in SPR; also called hu KLK7; huKLK7
Assay: SPR BIAcore 8K, antibody on protein A chip, 37 C
Protocol: The binding affinity of the humanized antibodies was determined by BIAcore™ 8K SPR system. For kinetics measurements, antibodies were captured on research grade protein A chip (GE Healthcare) to achieve approximately 300 RU. Ten-fold serial dilutions of human KLK7 were injected in HBS-P buffer at 37° C. with a flow rate of 100 μL/min. Association rates (ka) and dissociation rates (kd) were calculated using a 1:1 Langmuir binding model (BIAcore Insight Evaluation Software version 2.0). The equilibrium dissociation constant (KD) was calculated as the ratio kd/ka.

T3 sequence (P49862 30-253): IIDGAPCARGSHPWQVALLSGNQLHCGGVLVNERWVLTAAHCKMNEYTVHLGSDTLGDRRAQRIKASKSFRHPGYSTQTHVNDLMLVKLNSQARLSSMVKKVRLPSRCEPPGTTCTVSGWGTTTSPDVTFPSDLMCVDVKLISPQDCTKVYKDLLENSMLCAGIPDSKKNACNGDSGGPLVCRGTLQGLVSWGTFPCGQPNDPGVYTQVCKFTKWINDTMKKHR

Binder	Kd [nM]	koff [s⁻¹]	kon [M⁻¹ s⁻¹]
B1	< 0.001	< 1e-06	2.16e+07
B2	0.000356	1.22e-05	3.43e+07
B3	0.000894	2.52e-05	2.82e+07

Target: T1, human KLK5
Assay: SPR, one-armed monovalent antibody

Binder	Kd [nM]	koff [s⁻¹]	kon [M⁻¹ s⁻¹]
B4	0.102	0.00128	1.25e+07
B5	0.0135	9.23e-05	6.84e+06
B6	0.00382	2.45e-05	6.41e+06
B7	0.000853	8.65e-06	1.01e+07
B8	0.00289	9.88e-06	3.42e+06
B9	< 0.000334	< 1e-06	3e+06
B10	0.000367	1.88e-06	5.13e+06
B11	< 0.000235	< 1e-06	4.25e+06
B12	0.00259	1.51e-05	5.82e+06

Target: T2, cynomolgus monkey KLK5
Assay: SPR, one-armed monovalent antibody

Binder	Kd [nM]	koff [s⁻¹]	kon [M⁻¹ s⁻¹]
B4	0.371	0.00424	1.14e+07
B5	0.0355	0.00052	1.46e+07
B6	0.00885	0.000161	1.82e+07
B7	0.00376	5.72e-05	1.52e+07
B8	0.0162	8.88e-05	5.48e+06
B9	0.00522	3.08e-05	5.9e+06
B10	0.00265	2.81e-05	1.06e+07
B11	0.00303	2.86e-05	9.41e+06
B12	0.00744	0.0001	1.35e+07

Target: T2, cynomolgus monkey KLK5
Assay: SPR, one-armed monovalent antibody
Remark: another data set of the same source

Binder	Kd [nM]	koff [s⁻¹]	kon [M⁻¹ s⁻¹]
B13	0.00978	0.000145	1.48e+07
B14	0.033	0.000133	4.02e+06
B15	0.0361	0.000145	4.02e+06

Target: T2, cynomolgus monkey KLK5
Assay: cell-based or functional assay

Binder	IC50, KLK5 direct functional assay (Boc-Val-Pro-Arg-AMC), bivalency corrected [nM]
B2	> 10
B16	0.56

Target: cyano KLK7 (SEQ ID NO: 6 plus a C-terminal FLAG tag) (cynomolgus monkey, UniProt P49862 30-253 (human entry))
Assay: cell-based or functional assay

cyano KLK7 (SEQ ID NO: 6 plus a C-terminal FLAG tag), sequence (P49862 other isoform, or with tags, fused parts or gaps): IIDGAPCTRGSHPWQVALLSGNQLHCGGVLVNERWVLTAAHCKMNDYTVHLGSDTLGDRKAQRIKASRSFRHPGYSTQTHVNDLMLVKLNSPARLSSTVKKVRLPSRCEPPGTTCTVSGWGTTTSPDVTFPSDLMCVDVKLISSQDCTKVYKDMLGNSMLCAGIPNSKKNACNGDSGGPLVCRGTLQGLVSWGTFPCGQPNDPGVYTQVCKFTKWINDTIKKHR

Binder	IC50, KLK7 direct functional assay (Mca-RPKPVE-Nval-WRK(Dnp)), bivalency corrected [nM]
B2	0.29
B16	> 10

Target: T1, human KLK5
Assay: cell-based or functional assay

Binder	IC50, KLK5 direct functional assay (Boc-Val-Pro-Arg-AMC), bivalency corrected [nM]
B2	> 10
B16	0.46

Target: human KLK7 (SEQ ID NO: 4 plus a C-terminal FLAG tag) (human, UniProt P49862 30-253)
Assay: cell-based or functional assay

human KLK7 (SEQ ID NO: 4 plus a C-terminal FLAG tag), sequence (P49862 30-253): as the sequence (P49862 30-253) above

Binder	IC50, KLK7 direct functional assay (Mca-RPKPVE-Nval-WRK(Dnp)), bivalency corrected [nM]
B2	0.29
B16	> 10

Target: T1, human KLK5
Assay: SPR, one-armed monovalent antibody
Remark: another data set of the same source

Binder	Kd [nM]	koff [s⁻¹]	kon [M⁻¹ s⁻¹]
B13	0.0186	4.46e-05	2.4e+06
B14	0.0199	4.91e-05	2.47e+06
B15	0.0502	3.94e-05	785000
